Experiment [1] addresses GFRα2/Fc fusion protein (R&D Systems) (human). Nature of the experiment: GFRα2 ELISA (GFRα2/Fc on anti-Fc plate, Ret-AP detection) on conditioned medium of transfected HiB5 cells; reference is medium of wt NTN transfected cells. For orientation: In an ELISA, binding on a coated surface is turned into a signal by an enzyme label.
Experiment [2] has the same target. The experiment in a line: GFRα2 ELISA (GFRα2/Fc on anti-Fc plate, Ret-AP detection) on conditioned medium of transfected ARPE-19 cells; reference is medium of wt NTN transfected cells.
Experiment [3] shares this target. The experiment in a line: GFRα2 ELISA (GFRα2/Fc on anti-Fc plate, Ret-AP detection) on conditioned medium of transfected CHO cells; reference is medium of wt NTN transfected cells.
The target is the same in experiment [4]. The experiment in a line: GFRα2 ELISA (GFRα2/Fc on anti-Fc plate, Ret-AP detection) on conditioned medium of transfected HEK293 cells; reference is medium of wt NTN transfected cells.

B1: mature human Neurturin secreted from cells transfected with the dpro-NTN construct (deltapro102NTN) (ligand)
chain: ARLGARPCGLRELEVRVSELGLGYASDETVLFRYCAGACEAAARVYDLGLRRLRQRRRLRRERVRAQPCCRPTAYEDEVSFLDAHSRYHTVHELSARECACV
With B1, the fold higher NTN binding (relative GFRα2 binding activity, wt construct set to 1) turned out to be 7.5 fold in experiment [1], 117 fold in experiment [2], 4.1 fold in experiment [3] and 90 fold in experiment [4].

B2: mature human Neurturin secreted from cells transfected with the IgSP-NTN construct (IgSP-102NTN) (ligand)
chain: B1 chain
Consider B2, for which the fold higher NTN binding (relative GFRα2 binding activity, wt construct set to 1) in experiment [1] is 162 fold; in experiment [2], 771 fold; in experiment [3], 66 fold; in experiment [4] it was 278 fold.

The values are drawn from patent EP2210617A1.
